According to patent US20180044433A1 (FONDAZIONE IRCCS INSTITUTO NAZIONALE DEI TUMORI, published 2018):

How the values were obtained:
[1] = molecular target: T1, JMJD6 5′/FLAG (amino acids 1-305 with C-terminal FLAG) (human, UniProt Q6NYC1 1-305); test: immunofluorescence on transfected MeWo cells
T1 construct: range 1-305; Expressed in transfected MeWo cells and tested by immunofluorescence; also called JM 5′/FLAG

[2] = molecular target: T2, JMJD6 peptide 45 (human); test: ELISA on plated peptides (1 ug/well)
T2 construct: also called pool H
T2 peptide: SRKWYRILKQEHPE
Method: (§1) A peptide library was synthesized (Primm), consisting of 57 peptides with 14 amino acids each and whose sequences overlap for 7 amino acids. In order to assay the interaction with collagen, the peptides, were sown in a plate (1 ug/well) and incubated for the whole night at 4° C. […] The reaction was developed and read at 450 nm as indicated above. As control two unrelated peptides were used and the reactivity of the antibodies on the peptides in absence of collagen was evaluated.

[3] = molecular target: T3, JMJD6 peptide 44 (human); test: ELISA on plated peptides (1 ug/well)
T3 construct: also called pool H
T3 peptide: VRGRPKLSRKWYRI
Method: as §1

[4] = molecular target: T4, JMJD6 peptide 40 (human); test: ELISA on plated peptides (1 ug/well)
T4 construct: also called pool G
T4 peptide: VVLNLDTTIAITQN
Method: as §1

[5] = molecular target: T5, JMJD6 peptide 25 (human); test: ELISA on plated peptides (1 ug/well)
T5 construct: also called pool E
T5 peptide: RPPYRWFVMGPPRS
Method: as §1

[6] = molecular target: T6, JMJD6 peptide 17 (human); test: ELISA on plated peptides (1 ug/well)
T6 construct: also called pool C
T6 peptide: KMKYYIEYMESTRD
Method: as §1

[7] = molecular target: T7, JMJD6 peptide 29 (human); test: ELISA on plated peptides (1 ug/well)
T7 construct: also called pool F
T7 peptide: NALVQGHKRWCLFP
Method: as §1

[8] = molecular target: T8, JMJD6 peptide 14 (human); test: ELISA on plated peptides (1 ug/well)
T8 construct: also called pool B
T8 peptide: RKYRNQKFKCGEDN
Method: as §1

[9] = molecular target: T9, JMJD6 peptide 54 (human); test: ELISA on plated peptides (1 ug/well)
T9 construct: also called pool I
T9 peptide: HRRKKRRTCSMVGN
Method: as §1

[10] = molecular target: T10, JMJD6 peptide 13 (human); test: ELISA on plated peptides (1 ug/well)
T10 construct: also called pool B
T10 peptide: WTLERLKRKYRNQK
Method: as §1

[11] = molecular target: T11, JMJD6 peptide 24 (human); test: ELISA on plated peptides (1 ug/well)
T11 construct: also called pool E
T11 peptide: QYAGEKRRPPYRWF
Method: as §1

[12] = molecular target: T12, JMJD6 peptide 43 (human); test: ELISA on plated peptides (1 ug/well)
T12 construct: also called pool H
T12 peptide: PVVWHKTVRGRPKL
Method: as §1

[13] = molecular target: T13, JMJD6 peptide 30 (human); test: ELISA on plated peptides (1 ug/well)
T13 construct: also called pool F
T13 peptide: KRWCLFPTSTPREL
Method: as §1

[14] = molecular target: T14, JMJD6 peptide 38 (human); test: ELISA on plated peptides (1 ug/well)
T14 construct: also called pool G
T14 peptide: KPGETVFVPGGWWH
Method: as §1

[15] = molecular target: T15, JMJD6 peptide 53 (human); test: ELISA on plated peptides (1 ug/well)
T15 construct: also called pool I
T15 peptide: SEGDGTVHRRKKRR
Method: as §1

[16] = molecular target: T16, JMJD6 peptide 2 (human); test: ELISA on plated peptides (1 ug/well)
T16 construct: also called pool A
T16 peptide: RIREAKRSARPELK
Method: as §1

[17] = molecular target: T17, JMJD6 peptide 1 (human); test: ELISA on plated peptides (1 ug/well)
T17 construct: also called pool A
T17 peptide: MNHKSKKRIREAKR
Method: as §1

[18] = molecular target: T18, JMJD6 peptide 20 (human); test: ELISA on plated peptides (1 ug/well)
T18 construct: also called pool D
T18 peptide: DSSYGEHPKRRKLL
Method: as §1

[19] = molecular target: T19, JMJD6 peptide 39 (human); test: ELISA on plated peptides (1 ug/well)
T19 construct: also called pool G
T19 peptide: VPGGWWHVVLNLDT
Method: as §1

[20] = molecular target: T20, JMJD6 peptide 21 (human); test: ELISA on plated peptides (1 ug/well)
T20 construct: also called pool D
T20 peptide: PKRRKLLEDYKVPK
Method: as §1

[21] = molecular target: T21, JMJD6 peptide 16 (human); test: ELISA on plated peptides (1 ug/well)
T21 construct: also called pool C
T21 peptide: DGYSVKMKMKYYIE
Method: as §1

[22] = molecular target: T22, JMJD6 peptide 41 (human); test: ELISA on plated peptides (1 ug/well)
T22 construct: also called pool G
T22 peptide: TIAITQNFASSTNF
Method: as §1

Measured: binding result

B1: monoclonal antibody P4E11 (antibody, V domains shown, not shown: a dimerising Fc or GST)
VH: QVQLKQSGPGLVQPSQSLSITCTVSGFSLSSYGVHWVRQSPGKGLEWLGVIWRSGNTDYNAVFMSRLSITKDDSKSQVFFKMNSLQADDTAIYYCAKNFRYDVGSWFAYWGQGTLVTVSA
VL: NIMMTQSPSSLAVSAGEKVTMNCKSSQSILYSSNHKNYLAWYQQKPGQSPKLLIYWASTRESGVPNRFTGSGSGTDFTLTISSVQSEDLAVYYCHQYLSSYTFGGGTKLEIKR
no binding: [1] | [2] | [3] | [4] | [5] | [6] | [7] | [8] | [9] | [10] | [11] | [12] | [13] | [14] | [15] | [16] | [17] | [18] | [19] | [20] | [21] | [22]
